Reference: PMC4797282 (Nucleic Acids Research, 2016)

Biological target: the molecule itself
Assay: SEC-MALS

B1: CpMgm101-NoTag (untagged full-length mature Candida parapsilosis Mgm101) (natural protein, UniProt G8B839 30-266, looked up)
chain: VPKTASAKTTSKLAPSITTEDEVAEQDPSLQEPQSATSTASFAFHDAPPETRSVLNSSTNNNIDWSDSYHGLGSQPFSREIADILLAPIKDQDIEIKPDGLLYLPEIKYRRILNKAFGPGGWGLVPRTESLITKSQISREYGLICHGRLISIARGEQDYFGGEEKVTTALEGCKSNALMRCCKDLGIASELWDPGFIRKWKAKYCEEVFVEHVVNKKKKKLWKLKSNKKIEYPYKQL
stoichiometry N: 3
